Source: patent US20160216269A1 (BIOCARE MEDICAL, published 2016)

Molecular target: T1, SOX10 epitope peptide QGGTAAIQAHYKSAH (human)
T1 construct: One of the overlapping peptides of about 15 amino acids covering human SOX10 147-253
T1 peptide: QGGTAAIQAHYKSAH
Experiment: epitope mapping with overlapping SOX10 peptides, direct ELISA and dot blot
Description: In order to determine the peptide sequence of SOX10 that is recognized by anti-SOX10 antibodies such as BC34, epitope mapping may be conducted perhaps using two assays: direct ELISA and even dot blot. In an ELISA assay, the sensitivity and specificity of the anti-SOX10 [BC34] antibody may be determined by measuring the antibody titer at about 1:500 and about 1:1000. Overlapping peptides at a length of about 15 amino acids each, covering the human SOX10 protein sequence from perhaps 147 to 253 amino acids, may be used to determine a sequence of BC34 binding.

binding result: binds
B1: mouse monoclonal anti-SOX10 antibody BC34 (antibody, V domains shown)
VH: QVTLKESGPGILQPSQTLSLTCSFSGFSLSTFLIGVGWIRQPSGKGLEWLAHIWWNDNKYYNTALKNRLTISKDTSNNQVFLKIASVDTTDTATYYCVRMAGIGGTDAMDYWGQGTSVTVSS
VL: DIVLTQSPASLAVSLGQRATISCRASEIVEYYGTNLLQWYQQKPGQPPKLLIYAASNVESGVPARFSGSGSGTDFSLNIHPVEEDDIAIYFCQQSRKVPWTFGGGTKLEIK
notes: also called anti-SOX10 antibody [clone BC34]; SOX10 [BC34]
